We go through two proteins from paper PMC5093072 (Structure (London, England : 1993), 2016).

The data set “SEC” concerns the molecule itself. Briefly: SEC.
The data set “SPR” deals with the molecule itself. The experiment in a line: SPR. (Surface plasmon resonance follows binding to a sensor surface in real time, without labels.)

B1: glutathionylated T2D/A4V-SOD1 (GS-T2D/A4V-SOD1), C111-glutathionylation enriched species (enzyme)
chain: not shown
modifications: glutathionylation at C111 (enriched species); for SPR: biotinylated on one subunit (EZ-link NHS-LC-LC-biotin)
What is called stoichiometry N is a count of units in the complex or per binding partner. For orientation: koff means a measure of how fast the partners let go of each other. Low values mean a long-lived complex, high ones a short-lived complex. For the protein B1, the “stoichiometry N” value in “SEC” came to 2. Also, the koff in the data set “SPR” came out at 0.000161 s⁻¹.

B2: double mutant T2D/A4V-SOD1, unmodified (enzyme)
chain: not shown
modifications: for SPR: biotinylated on one subunit (EZ-link NHS-LC-LC-biotin)
Take B2: the “stoichiometry N” value in the data set “SEC” came to 2. Also, the koff in the data set “SPR” came out at 0.000156 s⁻¹.
